Measurements: US20130330346A1 (Novartis, published 2013)
Read-outs that look alike come from different tables or passages of the source. Ends that are not written are not given here.

Legend:
[1] = biological target: T1, Human CXCR2 (human, UniProt P25025 1-360); assay: FACS, periplasmic extract vs FMAT Blue Gro-α
T1 construct: Some cell lines carry an N-terminal 3xHA tag; also called hCXCR2; huCXCR2
T1 sequence: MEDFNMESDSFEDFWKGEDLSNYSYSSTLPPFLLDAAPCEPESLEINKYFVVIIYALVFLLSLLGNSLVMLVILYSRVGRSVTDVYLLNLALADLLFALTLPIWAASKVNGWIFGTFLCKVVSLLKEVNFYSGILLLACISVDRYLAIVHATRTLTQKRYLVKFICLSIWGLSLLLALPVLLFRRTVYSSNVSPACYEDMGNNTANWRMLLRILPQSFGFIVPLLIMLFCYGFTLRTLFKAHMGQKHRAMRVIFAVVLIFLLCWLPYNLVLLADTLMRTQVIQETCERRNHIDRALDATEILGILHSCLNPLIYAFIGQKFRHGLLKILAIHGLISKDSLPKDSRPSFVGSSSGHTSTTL
Experimental: Periplasmic extracts (as described above) were analyzed on FACS for competition with Gro-α in binding to human CXCR2. 2×10⁵ cells were incubated with a ½ dilution of periplasmic extracts in FACS buffer (PBS+10% fetal bovine serum (Sigma, F7524)) for 30 minutes at 4° C. Then, an equal volume of 6 nM of FMAT Blue-labeled human Gro-α in FACS buffer was added and incubation was continued for another 30 minutes at 4° C. in the dark. Cells were then washed three times in FACS buffer and finally resuspended in FACS buffer. Dead cells were stained with propidium iodide (Sigma, P4170). Samples were then analyzed on a FACSarray (BD Biosciences).

[2] = biological target: T2, Human 1to19 peptide (human); assay: ELISA, periplasmic extract on biotinylated peptide
T2 construct: First 19 N-terminal amino acids of human CXCR2, captured on neutravidin; also called human CXCR2 1 to19 peptide; 1-19 Nter peptide
T2 peptide: MEDFNMESDSFEDFWKGED-biotin
Experimental: In another setup, periplasmic extracts were analyzed for binding to human 1 to 19 peptide by ELISA. MaxiSorb plates (Nunc, 430341) were coated for two hours with neutravidin followed by one hour blocking (PBS, 1% casein). Then 100 nM biotinylated human 1 to 19 peptide was added to these plates for one hour (PBS, 0.1% casein, 0.05% tween20) followed by one hour incubation with 10-fold dilutions of periplasmic extracts. Unbound periplasmic extracts were washed away (PBS supplemented with 0.05% tween20) and bound Nanobodies were detected using mouse anti-myc (Roche, 11667149001) followed by rabbit anti-mouse-HRP conjugate (Dakocytomation, P0260). Table 8 summarizes the ratios of the binding signals of anti-CXCR2Nanobodies over an irrelevant control Nanobody.

[3] = biological target: T1, Human CXCR2; assay: cell-based or functional assay
[4] = biological target: T1, Human CXCR2; assay: cell-based or functional assay; remark: listed apart in the source
[5] = biological target: T3, Cynomolgus CXCR2 (cynomolgus, UniProt Q28519 3-353 (rhesus entry)); assay: cell-based or functional assay
T3 chain: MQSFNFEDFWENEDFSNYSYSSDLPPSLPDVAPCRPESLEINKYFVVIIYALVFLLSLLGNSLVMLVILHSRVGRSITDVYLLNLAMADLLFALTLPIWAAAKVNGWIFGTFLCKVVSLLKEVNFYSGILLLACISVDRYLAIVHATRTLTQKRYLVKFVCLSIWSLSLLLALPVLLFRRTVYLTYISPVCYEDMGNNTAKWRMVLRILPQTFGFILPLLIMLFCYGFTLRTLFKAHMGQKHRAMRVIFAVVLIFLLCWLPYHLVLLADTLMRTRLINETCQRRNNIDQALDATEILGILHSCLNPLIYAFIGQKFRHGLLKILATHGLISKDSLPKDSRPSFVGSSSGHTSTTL

[6] = biological target: T1, Human CXCR2; assay: FACS competition vs 3 nM FMAT-Blue Gro-α
Experimental: (§1) Multivalent anti-CXCR2Nanobodies were titrated against 3 nM FMAT-Blue-labeled Gro-α in the FACS ligand competition assay on human and cynomolgus CXCR2 (Table 14). On human CXCR2, blocking potencies range between double digit nM and sub-nM whereas on cynomolgus CXCR2, they range between single and double digit nM.

[7] = biological target: T3, Cynomolgus CXCR2; assay: FACS competition vs 3 nM FMAT-Blue Gro-α
Experimental: as §1

[8] = biological target: T1, Human CXCR2; assay: cell-based or functional assay; remark: listed apart in the source
[9] = biological target: T3, Cynomolgus CXCR2; assay: cell-based or functional assay
[10] = biological target: T1, Human CXCR2; assay: FACS competition vs 3 nM FMAT-Blue Gro-α; remark: listed apart in the source
Experimental: Purified monovalent anti-CXCR2Nanobodies were titrated against 3 nM FMAT-Blue-labeled Gro-α in the FACS ligand competition assay on human and cynomolgus CXCR2 (Table 10). On human CXCR2, blocking potencies range between double digit nM and sub-nM whereas on cynomolgus CXCR2, they range between single and double digit nM.

[11] = biological target: T1, Human CXCR2; assay: cell-based or functional assay; remark: listed apart in the source

B1: 143A5 (VHH)
VHH: KVQLVESGGGLVQAGGSLRLSCAASGRAFNYYVMAWFRQAQGKEREFVAAISTRGSMTKYSDSVQGRFTISRDNAKNTVYLHMNSLKPEDTAVYYCAADPRGSSWSFSSGGYDYWGQGTQVTVSS
notes: Tested as periplasmic extract only; also called 143A05; not shown: C-terminal c-myc tag and His6 tag coded by the vector
FACS Gro-α competition (% inhibition) [1]: 72.6%

B2: 139A8 (VHH)
VHH: EVQLVESGGGLVQAGGSLRLSCAASGRSFSRSAMGWLRQAPGKEREFVAGISWGGDNSYYADSVKGRFTISRDNAKNTVSLQMNSLKPQDTAVYYCAARYRGGAAVAGWEYWGQGTQVTVSS
notes: Tested as periplasmic extract only; also called 139A08; not shown: C-terminal c-myc tag and His6 tag coded by the vector
FACS Gro-α competition (% inhibition) [1]: 78.5% | ratio of binding signal relative to blank control [2]: 1 ratio

B3: 137A8 (VHH)
VHH: EVQLVESGGGLVQPGGSLRLSCAASGSTLAYYTVGWFRRAPGKEREGISCISSSDGSTYYADSVKGRFTISRDNAKNTVYLQMNSLKPEDTAVYYCAADRRTDCKKGRVGSGSWGQGTQVTVSS
notes: Tested as periplasmic extract only; also called 137A08; not shown: C-terminal c-myc tag and His6 tag coded by the vector
FACS Gro-α competition (% inhibition) [1]: 55.8% | ratio of binding signal relative to blank control [2]: 1.2 ratio

B4: 143B3 (VHH)
VHH: EVQLVESGGGLVQPGGSLRLSCAASGFTFSTYWMYWVRQAPGKGLDWVSAINAGGDSTYYADPVKGRFTISRDNNKNTLYLQMNSLKPEDTALYYCATVRGTARDLDYWGQGTQVTVSS
notes: Tested as periplasmic extract only; also called 143B03; not shown: C-terminal c-myc tag and His6 tag coded by the vector
FACS Gro-α competition (% inhibition) [1]: 70.8%

B5: CXCR20028 (other)
chain: EVQLVESGGGLVQPGGSLRLSCVASGSIVRINTMGWYRQTPGKQRELVADITSGGNINYIDAVKGRFTISRDNTKNTVYLQMNSLKPEDTAVYYCNAEIVVLVGVWTQRARTGNYWGQGTQVTVSSGGGGSGGGGSGGGGSGGGGSGGGGSGGGGSGGGGSEVQLVESGGGLVQAGGSLTLSCAVSGSTFRINTMGWYRRAPGKQRELVAARDRGGYINYVDSVKGRFTVSRDNAKPTMYLQMNSLKPEDTAVYYCHAGTQDRTGRNFDRWGQGTQVTVSS
notes: Biparatopic: two VHH joined by a GlySer linker; also called 97A9-35GS-54B12; 97A9-54B12; not shown: C-terminal c-myc tag and His6 tag coded by pAX100
[35S]GTPγS % inhibition of max (GRO-α) [3]: 100% | [35S]GTPγS IC50 (GRO-α) [3]: 1.38 nM | FLIPR % inhibition of max [4]: 100% | FLIPR IC50 (GRO-α induced calcium release) [4]: 21.9 nM | FLIPR % inhibition of max [5]: 100% | FLIPR IC50 (GRO-α induced calcium release) [5]: 17 nM | % inhibition of max [6]: 98.5% | IC50 [6]: 1.63 nM | % inhibition of max [7]: 96% | IC50 [7]: 3.8 nM | Human WBSC IC50 (rhGROα) [8]: 0.43 nM | Cynomologus WBSC IC50 (rhGROα) [9]: 1.72 nM

B6: 137B7 (VHH)
VHH: EVQLVESGGGLVQPGGSVRLSCVASGIIFRLSALGWTRQGPGKAREWVAGINSDGTTNYADPVKGRFTISRDNAKNTIYLHMDMLKPEDTAVYYCASGKYRGQGTQVTVSS
notes: Tested as periplasmic extract (pAX50) and as purified His6-tagged protein (pAX100); also called 137B07; not shown: C-terminal c-myc tag and His6 tag coded by the vector
% inhibition of max [10]: 93.5% | IC50 [10]: 1.11 nM | FLIPR % inhibition max [11]: 100% | FLIPR IC50 (GRO-α induced calcium release) [11]: 6.71 nM | FACS Gro-α competition (% inhibition) [1]: 90.3% | ratio of binding signal relative to blank control [2]: 1 ratio

B7: 145D3 (VHH)
VHH: EVQLVESGGGLVQAGGSLSLSCAASGLIFRLSGMAWYRQAPGRQREWVAVLTKDGTLHYADPVKGRFTISRNNAENTWYLQMNSLKPEDTAIYYCNTGRYWGQGTQVTVSS
notes: Tested as periplasmic extract only; also called 145D03; not shown: C-terminal c-myc tag and His6 tag coded by the vector
FACS Gro-α competition (% inhibition) [1]: 77.9%

B8: 126B11 (VHH)
VHH: EVQLVESGGGLVQAGGSLTLSCAVSGSSFRINTMGWYRRAPGKQRELVAARDRGGYINYVDSVKGRFTVSRDNAKPTMYLQMNSLKPEDTAVYYCHAGTQDRTGRNFDHWGQGTQVTVSS
notes: Tested as periplasmic extract only; not shown: C-terminal c-myc tag and His6 tag coded by the vector
FACS Gro-α competition (% inhibition) [1]: 36.9%

B9: CXCR20030 (other)
chain: EVQLVESGGGLVQAGGSLRLSCAASGRTFSDYAMGWFRQAPGKEREFVAAITWNGGRVFYTASVKGRFTISRDNAKNTMYLQMNSLKPEDTAVYYCAADKDRRTDYLGHPVAYWGQGTQVTVSSGGGGSGGGGSGGGGSGGGGSGGGGSGGGGSGGGGSEVQLVESGGGLVQAGGSLTLSCAVSGSTFRINTMGWYRRAPGKQRELVAARDRGGYINYVDSVKGRFTVSRDNAKPTMYLQMNSLKPEDTAVYYCHAGTQDRTGRNFDRWGQGTQVTVSS
notes: Biparatopic: two VHH joined by a GlySer linker; also called 163D2-35GS-54B12; 163D2-54B12; not shown: C-terminal c-myc tag and His6 tag coded by pAX100
[35S]GTPγS % inhibition of max (ENA-78) [3]: 100% | [35S]GTPγS % inhibition of max (GRO-α) [3]: 100% | [35S]GTPγS % inhibition of max (IL-8) [3]: 100% | [35S]GTPγS IC50 (ENA-78) [3]: 1.3 nM | [35S]GTPγS IC50 (GRO-α) [3]: 1.02 nM | [35S]GTPγS IC50 (IL-8) [3]: 1.09 nM | FLIPR % inhibition of max [4]: 100% | FLIPR IC50 (GRO-α induced calcium release) [4]: 11.8 nM | FLIPR % inhibition of max [5]: 100% | FLIPR IC50 (GRO-α induced calcium release) [5]: 6.36 nM | % inhibition of max [6]: 99.5% | IC50 [6]: 0.786 nM | % inhibition of max [7]: 98.5% | IC50 [7]: 1.74 nM | Human WBSC IC50 (rhGROα) [8]: 0.215 nM | Cynomologus WBSC IC50 (rhGROα) [9]: 0.56 nM

B10: 159B10 (VHH)
VHH: EVQLVESGGGLVQPGGSLRLSCAASGRTFSSLSMGWFRQAPGKERAFVAALTRNGGYRYYADSVKGRFTISRDVAKKTLYLQMNSLKPEDTAVYYCAADSLSGSDYLGTNLDYWGQGTQVTVSS
notes: as for B8
FACS Gro-α competition (% inhibition) [1]: 75.8% | ratio of binding signal relative to blank control [2]: 0.8 ratio

B11: 139D5 (VHH)
VHH: EVKLVESGGGLVQAGGSLRLSCALSGRIGSINAMGWYRQVSGQQRELVAVSRSGGSTDIADSVKGRFTISRDNGKNTVYLQMDSLKPEDTAVYYCYAHTSSYSNWRVYNNDYWGQGTQVTVSS
notes: Tested as periplasmic extract only; also called 139D05; not shown: C-terminal c-myc tag and His6 tag coded by the vector
FACS Gro-α competition (% inhibition) [1]: 56.8% | ratio of binding signal relative to blank control [2]: 0.8 ratio

B12: 145C9 (VHH)
VHH: EVQLVESGGGLVQAGGSLRLSCAASGFTFDDYAIGWFRQAPGKERERVSCISGSDGSTYYADSVKGRFTISSDNAKNTVYLQMNNLKPEDTAVYYCAAYWGLTLRLWMPPHRYDYWGQGTQVTVSS
notes: Tested as periplasmic extract only; also called 145C09; not shown: C-terminal c-myc tag and His6 tag coded by the vector
FACS Gro-α competition (% inhibition) [1]: 53.5%

B13: 139H2 (VHH)
VHH: EVQLVESGGGLVQAGGSLRLSCAASGRTFSNYAMGWFRQATGKEREFVAAINKSGGNTHYAGSVKGRFTISRDNAKNTVYLQMNSLKPRDTAVYYCAASRTNPKPDYWGQGTQVTVSS
notes: Tested as periplasmic extract only; also called 139H02; not shown: C-terminal c-myc tag and His6 tag coded by the vector
FACS Gro-α competition (% inhibition) [1]: 50.5% | ratio of binding signal relative to blank control [2]: 1.7 ratio
